{
  "source": "patent US20250283871A1",
  "about": "“COMPOSITIONS AND METHODS FOR MODULATING THE INTERACTION BETWEEN SS18-SSX FUSION ONCOPROTEIN AND NUCLEOSOMES” (Dana-Farber Cancer Institute, Inc., priority 2020, published 2025)",
  "key": {"[1]": {"target": "BCL7C_HUMAN Isoform 2 of B-cell CLL/lymphoma 7 protein family member C (human) (UniProt Q8WUZ0)", "assay": "MS of BAF complexes from Aska-SS cells, shControl against shSS18-SSX, Rep 2"}, "[2]": {"target": "SNF5_HUMAN Isoform B of SWI/SNF-related matrix-associated actin-dependent regulator of chromatin subfamily B member 1 (human) (UniProt Q12824)", "assay": "MS of BAF complexes from Aska-SS cells, shControl against shSS18-SSX, Rep 2"}, "SSX1; SSX8 (human) [3]": {"target": "SSX1; SSX8 (human) (UniProt Q16384)", "assay": "MS of BAF complexes from Aska-SS cells, shControl against shSS18-SSX, Rep 2"}, "[4]": {"target": "ARI1B_HUMAN Isoform 3 of AT-rich interactive domain-containing protein 1B (human) (UniProt Q8NFD5)", "assay": "MS of BAF complexes from Aska-SS cells, shControl against shSS18-SSX, Rep 2"}, "[5]": {"target": "SMRC1_HUMAN SWI/SNF complex subunit SMARCC1 (human) (UniProt Q92922)", "assay": "MS of BAF complexes from Aska-SS cells, shControl against shSS18-SSX, Rep 2"}, "BCL7B (human) [6]": {"target": "BCL7B (human) (UniProt Q9BQE9)", "assay": "MS of BAF complexes from Aska-SS cells, shControl against shSS18-SSX, Rep 2"}, "[7]": {"target": "SMRD1_HUMAN SWI/SNF-related matrix-associated actin-dependent regulator of chromatin subfamily D member 1 (human) (UniProt Q96GM5)", "assay": "MS of BAF complexes from Aska-SS cells, shControl against shSS18-SSX, Rep 2"}, "[8]": {"target": "ACL6A_HUMAN Actin-like protein 6A (human) (UniProt O96019)", "assay": "MS of BAF complexes from Aska-SS cells, shControl against shSS18-SSX, Rep 2"}, "[9]": {"target": "SMCE1_HUMAN SWI/SNF-related matrix-associated actin-dependent regulator of chromatin subfamily E member 1 (human) (UniProt Q969G3)", "assay": "MS of BAF complexes from Aska-SS cells, shControl against shSS18-SSX, Rep 2"}, "[10]": {"target": "SSXT_HUMAN Protein SSXT (human) (UniProt Q15532)", "assay": "MS of BAF complexes from Aska-SS cells, shControl against shSS18-SSX, Rep 2"}, "[11]": {"target": "TRA2B_HUMAN Transformer-2 protein homolog beta (human) (UniProt P62995)", "assay": "anti-SMARCA4 (BRG1) IP, mass spectrometry, human fibroblasts"}, "[12]": {"target": "ZN326_HUMAN DBIRD complex subunit ZNF326 (human) (UniProt Q5BKZ1)", "assay": "anti-SMARCA4 (BRG1) IP, mass spectrometry, human fibroblasts"}, "[13]": {"target": "UBP2L_HUMAN Isoform 5 of Ubiquitin-associated protein 2-like (human) (UniProt Q14157)", "assay": "anti-SMARCA4 (BRG1) IP, mass spectrometry, human fibroblasts"}, "[14]": {"target": "URB2_HUMAN Unhealthy ribosome biogenesis protein 2 homolog (human) (UniProt Q14146)", "assay": "anti-SMARCA4 (BRG1) IP, mass spectrometry, human fibroblasts"}, "[15]": {"target": "QCR2_HUMAN Cytochrome b-c1 complex subunit 2, mitochondrial (human) (UniProt P22695)", "assay": "anti-SMARCA4 (BRG1) IP, mass spectrometry, human fibroblasts"}, "[16]": {"target": "VIME_HUMAN Vimentin (human) (UniProt P08670)", "assay": "anti-SMARCA4 (BRG1) IP, mass spectrometry, human fibroblasts"}, "[17]": {"target": "XRN2_HUMAN 5'-3' exoribonuclease 2 (human) (UniProt Q9H0D6)", "assay": "anti-SMARCA4 (BRG1) IP, mass spectrometry, human fibroblasts"}, "[18]": {"target": "ZC11A_HUMAN Zinc finger CCCH domain-containing protein 11A (human) (UniProt O75152)", "assay": "anti-SMARCA4 (BRG1) IP, mass spectrometry, human fibroblasts"}, "[19]": {"target": "UBC_HUMAN Polyubiquitin-C (human) (UniProt P0CG48)", "assay": "anti-SMARCA4 (BRG1) IP, mass spectrometry, human fibroblasts"}, "[20]": {"target": "YLPM1_HUMAN Isoform 4 of YLP motif-containing protein 1 (human) (UniProt P49750)", "assay": "anti-SMARCA4 (BRG1) IP, mass spectrometry, human fibroblasts"}, "[21]": {"target": "UCRIL HUMAN Putative cytochrome b-c1 complex subunit Rieske-like protein 1 (human) (UniProt P0C7P4)", "assay": "anti-SMARCA4 (BRG1) IP, mass spectrometry, human fibroblasts"}, "[22]": {"target": "TNR6B_HUMAN Trinucleotide repeat-containing gene 6B protein (human) (UniProt Q9UPQ9)", "assay": "anti-SMARCA4 (BRG1) IP, mass spectrometry, human fibroblasts"}, "[23]": {"target": "SNF5_HUMAN Isoform B of SWI/SNF-related matrix-associated actin-dependent regulator of chromatin subfamily B member 1 (human) (UniProt Q12824)", "assay": "MS of BAF complexes from Aska-SS cells, shControl against shSS18-SSX, Rep 1"}, "SSX1; SSX8 (human) [24]": {"target": "SSX1; SSX8 (human) (UniProt Q16384)", "assay": "MS of BAF complexes from Aska-SS cells, shControl against shSS18-SSX, Rep 1"}, "[25]": {"target": "ARI1B_HUMAN Isoform 3 of AT-rich interactive domain-containing protein 1B (human) (UniProt Q8NFD5)", "assay": "MS of BAF complexes from Aska-SS cells, shControl against shSS18-SSX, Rep 1"}, "[26]": {"target": "SMRC1_HUMAN SWI/SNF complex subunit SMARCC1 (human) (UniProt Q92922)", "assay": "MS of BAF complexes from Aska-SS cells, shControl against shSS18-SSX, Rep 1"}, "BCL7B (human) [27]": {"target": "BCL7B (human) (UniProt Q9BQE9)", "assay": "MS of BAF complexes from Aska-SS cells, shControl against shSS18-SSX, Rep 1"}, "[28]": {"target": "ACL6A_HUMAN Actin-like protein 6A (human) (UniProt O96019)", "assay": "MS of BAF complexes from Aska-SS cells, shControl against shSS18-SSX, Rep 1"}, "[29]": {"target": "SMCE1_HUMAN SWI/SNF-related matrix-associated actin-dependent regulator of chromatin subfamily E member 1 (human) (UniProt Q969G3)", "assay": "MS of BAF complexes from Aska-SS cells, shControl against shSS18-SSX, Rep 1"}, "[30]": {"target": "SSXT_HUMAN Protein SSXT (human) (UniProt Q15532)", "assay": "MS of BAF complexes from Aska-SS cells, shControl against shSS18-SSX, Rep 1"}},
  "data": [
    {"substance": "SMCA4_HUMAN Transcription activator BRG1 (from UniProt P51532 1-1647) (enzyme)", "values": [
      {"measurement": "LFQ intensity ratio Aska (shControl)/Aska (shSS18-SSX), norm to SMARCA4", "setting": "[1]", "result": 1.54},
      {"measurement": "LFQ intensity ratio Aska (shControl)/Aska (shSS18-SSX), norm to SMARCA4", "setting": "[2]", "result": 0.0637},
      {"measurement": "LFQ intensity ratio Aska (shControl)/Aska (shSS18-SSX), norm to SMARCA4", "setting": "SSX1; SSX8 (human) [3]", "result": 66.8},
      {"measurement": "LFQ intensity ratio Aska (shControl)/Aska (shSS18-SSX), norm to SMARCA4", "setting": "[4]", "result": 0.65},
      {"measurement": "LFQ intensity ratio Aska (shControl)/Aska (shSS18-SSX), norm to SMARCA4", "setting": "[5]", "result": 0.622},
      {"measurement": "LFQ intensity ratio Aska (shControl)/Aska (shSS18-SSX), norm to SMARCA4", "setting": "BCL7B (human) [6]", "result": 1.13},
      {"measurement": "LFQ intensity ratio Aska (shControl)/Aska (shSS18-SSX), norm to SMARCA4", "setting": "[7]", "result": 0.95},
      {"measurement": "LFQ intensity ratio Aska (shControl)/Aska (shSS18-SSX), norm to SMARCA4", "setting": "[8]", "result": 1.1},
      {"measurement": "LFQ intensity ratio Aska (shControl)/Aska (shSS18-SSX), norm to SMARCA4", "setting": "[9]", "result": 0.855},
      {"measurement": "LFQ intensity ratio Aska (shControl)/Aska (shSS18-SSX), norm to SMARCA4", "setting": "[10]", "result": 1.26},
      {"measurement": "NSAF", "setting": "[11]", "result": 0.00022},
      {"measurement": "NSAF", "setting": "[12]", "result": 0},
      {"measurement": "NSAF", "setting": "[13]", "result": "5.74e-05"},
      {"measurement": "NSAF", "setting": "[14]", "result": 0},
      {"measurement": "NSAF", "setting": "[15]", "result": 0.00014},
      {"measurement": "NSAF", "setting": "[16]", "result": 0.000136},
      {"measurement": "NSAF", "setting": "[17]", "result": 0},
      {"measurement": "NSAF", "setting": "[18]", "result": 0},
      {"measurement": "NSAF", "setting": "[19]", "result": "9.25e-05"},
      {"measurement": "NSAF", "setting": "[20]", "result": 0.000266},
      {"measurement": "NSAF", "setting": "[21]", "result": 0.000224},
      {"measurement": "NSAF", "setting": "[22]", "result": "6.92e-05"},
      {"measurement": "LFQ intensity ratio Aska (shControl)/Aska (shSS18-SSX), norm to SMARCA4", "setting": "[23]", "result": 0.0221},
      {"measurement": "LFQ intensity ratio Aska (shControl)/Aska (shSS18-SSX), norm to SMARCA4", "setting": "SSX1; SSX8 (human) [24]", "result": 8.69},
      {"measurement": "LFQ intensity ratio Aska (shControl)/Aska (shSS18-SSX), norm to SMARCA4", "setting": "[25]", "result": 0.721},
      {"measurement": "LFQ intensity ratio Aska (shControl)/Aska (shSS18-SSX), norm to SMARCA4", "setting": "[26]", "result": 0.506},
      {"measurement": "LFQ intensity ratio Aska (shControl)/Aska (shSS18-SSX), norm to SMARCA4", "setting": "BCL7B (human) [27]", "result": 1.34},
      {"measurement": "LFQ intensity ratio Aska (shControl)/Aska (shSS18-SSX), norm to SMARCA4", "setting": "[28]", "result": 0.784},
      {"measurement": "LFQ intensity ratio Aska (shControl)/Aska (shSS18-SSX), norm to SMARCA4", "setting": "[29]", "result": 0.894},
      {"measurement": "LFQ intensity ratio Aska (shControl)/Aska (shSS18-SSX), norm to SMARCA4", "setting": "[30]", "result": 0.959}
    ]}
  ]
}
